# US20210139892, “COMPOSITIONS AND METHODS FOR DELIVERY OF RNA TO A CELL” (The Regents of the University of California, published 2021)
# T1: U1A-ppTG21 conjugate (U1A Cys variant disulfide-linked to ppTG21 endosomolytic peptide); number of ppTG21 not … (Homo sapiens, UniProt P09012 SEQ:2-98)
# T1 chain: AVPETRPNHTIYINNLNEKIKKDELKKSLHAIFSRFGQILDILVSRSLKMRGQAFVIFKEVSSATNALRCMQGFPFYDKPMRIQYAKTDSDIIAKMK
# T2: U1A N-terminal RNA-binding domain (Y31H, Q36R; exact Cys variant used in BLI not stated) (Homo sapiens, UniProt P09012 SEQ:2-98)
# T2 chain: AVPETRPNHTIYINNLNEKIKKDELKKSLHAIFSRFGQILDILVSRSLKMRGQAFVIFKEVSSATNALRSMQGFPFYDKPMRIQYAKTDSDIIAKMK
# Legend:
# [1] = target: T1, U1A-ppTG21 conjugate (U1A Cys variant …); experiment: BLI; biotin-RNA immobilised; 0.33-333 nM conjugate; not substantially bound; details: label: 5' biotin; hairpin
# From the text: (§1) Biolayer interferometry (BLI) was used to assess the capacity of Cas9 RNPs containing sgRNA variants to bind U1A (or U1A-ppTG21 conjugates) as well as to assess the persistence of any binding events. These assays approximated the experimental design described in Richardson et al. (Nat Biotechnol. 2016 March; 34(3):339-44. doi: 10.1038/nbt.3481). These experiments relied on a Cas9 protein covalently, site-specifically labeled with a biotin moiety, allowing loading onto a BLI sensor bearing streptavidin. The instrument used was an Octet Red 384. The buffer used was 20 mM HEPES, pH 7.5, 100 mM KCl, 10% Glycerol, 0.01 mg/ml Heparin, 0.01% IGEPAL. The loading step of the experiment used Cas9 RNP at 20 nM in the wells. U1A wells contained 100 nM, 330 nM, or 1 μM U1A. […] In contrast to the noSL RNP experiment, the SLabub RNP was markedly bound by the U1A, and the binding persisted for the ˜2000 s (˜33 min) duration of the dissociation phase (FIG. 15A). The SLabub RNP experiment was repeated using U1A-ppTG21 conjugate in the wells at concentrations spanning 100 nM to 6 μM (FIG. 15B).
# (§2) The concentrations of U1A-ppTG21 conjugate in the wells covered the range of 0.33-333 nM. Substantial binding was observed between the U1 stem loop and the U1A-ppTG21 conjugate, and this binding persisted for the ˜2000 s (˜33 min) of the dissociation phase (FIG. 15C).
# [2] = target: T1, U1A-ppTG21 conjugate (U1A Cys variant …); experiment: BLI; biotin-RNA immobilised; 0.33-333 nM conjugate; binding persists ~2000 s; details: label: 5' biotin; hairpin
# From the text: as §1, §2
# [3] = target: T2, U1A N-terminal RNA-binding domain …; experiment: BLI; biotin-Cas9 noSL RNP immobilised; 0.1-1 uM U1A; no substantial binding; details: tags: none; N-terminal Met removed in E. coli; sgRNA scaffold, no U1A site
# From the text: as §1
# [4] = target: T2, U1A N-terminal RNA-binding domain …; experiment: BLI; biotin-Cas9 RNP immobilised; 0.1-1 uM U1A; binding persists ~2000 s; 20 mM HEPES pH 7.5, 100 mM KCl, 0.01 mg/ml heparin; details: tags: none; N-terminal Met removed in E. coli; sgRNA with three U1A stem-loop hairpins
# From the text: as §1
# [5] = target: T1, U1A-ppTG21 conjugate (U1A Cys variant …); experiment: BLI; biotin-Cas9 RNP immobilised; 0.1-6 uM conjugate; binding persists ~900 s; details: sgRNA with three U1A stem-loop hairpins
# From the text: as §1
binder,measurement,setting,value
AAUCCAUUCAUGUACCGGAUU (ssRNA) [U2 RNA stem loop negative control],binding result,[1],no binding
AAUCCAUUGCACUCCGGAUU (ssRNA) [U1 RNA stem loop 2],binding result,[2],binds
noSL sgRNA (EMX1) (ssRNA) RNA: GUCACCUCCAAUGACUAGGGGUUUAAGAGCUAUGCUGGAAACAGCAUAGCAAGUUUAAAUAAGGCUAGUCCGUUAUCAACUUGAAAAAGUGGCACCGAGUCGGUGCUUUUUUU,binding result,[3],no binding
SLabub sgRNA (EMX1) (ssRNA) RNA: GUCACCUCCAAUGACUAGGGGUUUAAGAGCUAUGGAUCAUUGCACUCCGAUCCAUAGCAAGUUUAAAUAAGGCUAGUCCGUUAUCAACUUGUCGAGGCUAAGUCGCAUUGCACUCCGCGACAGCACAAGCCCGCUGCCAUUGCACUCCGGCAGCAGGGAACUCGUCAAGUGGCACCGAGUCGGUGCUUUUUUU,binding result,[4],binds
same,binding result,[5],binds
